Results reported in patent publication US20240076392A1, “ANTI-CD123 BINDING MOLECULES AND USES THEREOF” (IGM Biosciences, Inc., priority 2021, published 2024).

B1: h32716-1-1 IgG (antibody, V domains shown)
VH: QVQLVQSGAEVKKPGSSVKVSCKASGYIFTNYGMNWVRQAPGQGLEWMGWINTYTGESTYSADFKGRVTITADESTSTAYMELSSLRSEDTAVYYCARSGGYDPMDYWGQGTLVTVSS
VL: DIVMTQSPDSLAVSLGERATINCRASESVDNYGNTFMHWYQQKPGQPPKLLIYRASNLESGVPDRFSGSGSGTDFTLTISSLQAEDVAVYYCQQSNEDPPTFGQGTRLEIK
B2: h32716-3-1 IgG (antibody, V domains shown)
VH: QVQLVQSGAEVKKPGSSVKVSCKASGYIFTNYGMNWVKQAPGQGFKWMGWINTYTGESTYSADFKGRFTFTLDESTSTAYMELSSLRSEDTAVYYCARSGGYDPMDYWGQGTLVTVSS
VL: DIVMTQSPDSLAVSLGERATINCRASESVDNYGNTFMHWYQQKPGQPPKLLIYRASNLESGVPDRFSGSGSGTDFTLTISSLQAEDVAVYYCQQSNEDPPTFGQGTRLEIK
B3: h32716-2-1 IgG (antibody, V domains shown)
VH: QVQLVQSGAEVKKPGSSVKVSCKASGYIFTNYGMNWVKQAPGQGLEWMGWINTYTGESTYSADFKGRFTFTLDESTSTAYMELSSLRSEDTAVYYCARSGGYDPMDYWGQGTLVTVSS
VL: DIVMTQSPDSLAVSLGERATINCRASESVDNYGNTFMHWYQQKPGQPPKLLIYRASNLESGVPDRFSGSGSGTDFTLTISSLQAEDVAVYYCQQSNEDPPTFGQGTRLEIK
B4: 32716 IgG (antibody, V domains shown)
VH: QIQLVQSGPELKKPGETVKISCKASGYIFTNYGMNWVKQAPGKSFKWMGWINTYTGESTYSADFKGRFAFSLETSASTAYLHINDLKNEDTATYFCARSGGYDPMDYWGQGTSVTVSS
VL: DIVLTQSPASLAVSLGQRATISCRASESVDNYGNTFMHWYQQKPGQPPKLLIYRASNLESGIPARFSGSGSRTDFTLTINPVEADDVATYYCQQSNEDPPTFGAGTKLELK
B5: h32716-4-2 IgG (antibody, V domains shown)
VH: QVQLVQSGPELKKPGASVKVSCKASGYIFTNYGMNWVRQAPGQGLEWMGWINTYTGESTYSADFKGRFVFSLDTSVSTAYLQISSLKAEDTAVYYCARSGGYDPMDYWGQGTLVTVSS
VL: DIQMTQSPSSLSASVGDRVTITCRASESVDNYGNTFMHWYQQKPGKAPKLLIYRASNLESGVPSRFSGSGSGTDFTFTISSLQPEDIATYYCQQSNEDPPTFGQGTKVEIK
B6: h32716-6-2 IgG (antibody, V domains shown)
VH: QVQLVQSGPELKKPGASVKVSCKASGYIFTNYGMNWVKQAPGQGFKWMGWINTYTGESTYSADFKGRFVFSLDTSVSTAYLQISSLKAEDTAVYYCARSGGYDPMDYWGQGTLVTVSS
VL: DIQMTQSPSSLSASVGDRVTITCRASESVDNYGNTFMHWYQQKPGKAPKLLIYRASNLESGVPSRFSGSGSGTDFTFTISSLQPEDIATYYCQQSNEDPPTFGQGTKVEIK
B7: h32716-5-2 IgG (antibody, V domains shown)
VH: QVQLVQSGPELKKPGASVKVSCKASGYIFTNYGMNWVKQAPGQGLEWMGWINTYTGESTYSADFKGRFVFSLDTSVSTAYLQISSLKAEDTAVYYCARSGGYDPMDYWGQGTLVTVSS
VL: DIQMTQSPSSLSASVGDRVTITCRASESVDNYGNTFMHWYQQKPGKAPKLLIYRASNLESGVPSRFSGSGSGTDFTFTISSLQPEDIATYYCQQSNEDPPTFGQGTKVEIK

Tests used:
[1] = biological target: human CD123 on CHO cells expressing human CD123 (human) (UniProt P26951); test: flow cytometry on CHO cells expressing human CD123, 4-parameter fit (direct binding; column headed IC50)
[2] = biological target: human CD123 on CHO cells expressing human CD123 (human) (UniProt P26951); test: flow cytometry on CHO cells expressing human CD123, 4-parameter fit

Chain of human CD123 on CHO cells expressing human CD123 (human) (P26951 19-378): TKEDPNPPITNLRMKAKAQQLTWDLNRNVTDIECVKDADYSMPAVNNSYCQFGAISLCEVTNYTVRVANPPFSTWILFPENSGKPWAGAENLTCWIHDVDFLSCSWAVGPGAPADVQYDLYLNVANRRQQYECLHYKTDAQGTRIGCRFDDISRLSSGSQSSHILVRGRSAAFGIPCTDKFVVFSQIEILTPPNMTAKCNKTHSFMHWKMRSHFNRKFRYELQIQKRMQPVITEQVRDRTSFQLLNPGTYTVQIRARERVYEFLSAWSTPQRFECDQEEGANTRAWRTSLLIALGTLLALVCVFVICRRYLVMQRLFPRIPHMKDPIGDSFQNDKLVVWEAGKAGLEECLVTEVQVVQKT

Binder | EC50 (half-maximal binding concentration) [1] | Max binding intensity (MFI) [2] | EC50 [1]
B1 | 7.4 nM | 950000 MFI | –
B2 | 10 nM | 940000 MFI | –
B3 | 11 nM | 930000 MFI | –
B4 | – | 910000 MFI | 11 nM
B5 | 6.8 nM | 980000 MFI | –
B6 | 11 nM | 1e+06 MFI | –
B7 | – | 1.1e+06 MFI | 7.2 nM
